Laboratory results taken from patent publication US9958461B2, “Detection of protein to protein interactions” (THE GOVERNING COUNCIL OF THE UNIVERSITY OF TORONTO, priority 2013, dated 2018).

Key:
EGFR-Wt [1] = molecular target: T1, EGFR-Wt (Homo sapiens, UniProt P00533); test: MaMTH EGFR-interactor screen, lentiviral preys against EGFR-wildtype bait (interaction score); assay type: cell-based; settings: MaMTH interaction score of prey with EGFR-Wt bait, mean
T1 construct: with the advantage of testing full-length integral membrane proteins; (GGGGS)2 linker-Cub (human ubiquitin aa 35-76)-GAL4(1-147)-mNFkB(364-550) (C); expressed in transfected cells
Experimental: (§1) After lentivirus harvest, target cells (stable 5×GAL4UAS-luciferase reporter-HEK293T cells) were infected at a multiplicity of infection (MOI) of around 0.3-0.4 to ensure single copy integration per cell. Cells were selected in puromycin for at least 48 h and transfected with either EGFR-wildtype or EGFR-L858R baits in triplicates. 24 h after transfection, cells were lysed and luciferase assays performed. On each set of interaction assays, various negative controls were included. To calculate a MaMTH-interaction scores, negative controls were averaged and the fold-change of luciferase activity compared to the averaged controls was calculated and defined as the interaction score.
(§2) Each set of experiments contains a defined set of negative controls in at least three replicates. Negative controls were chosen as such that there is a range of controls showing high-background luciferase activity (normally cytosolic proteins: Fabp5, Pex19) as well as medium-background luciferase activity (membrane-bound interactors: Pex7, GABBR2). Negative controls were averaged and the fold-change of luciferase activity was calculated. Using this method, we have a stringent cut-off and chose an interaction score >1 to be interacting proteins.
(§3) Our cut-off of 1 is based on fold-change difference in luciferase activity over averaged negative controls. Negative controls include cytosolic preys (which tend to promiscuously bind to many proteins), plasma membrane- and peroxisomal-prey proteins. In general, we chose stringent conditions by testing preys that tend to have high luciferase background with any bait tested, in order to generate high-confidence interaction data. […] Phosphorylated tyrosine residues on the receptor are typically docking sites for downstream cytoplasmic targets and recognized through SH2 or PTB domains^43.

EGFR-Wt [2] = test: as above; assay type: cell-based, human; settings: ratio of EGFR-Wt mean to EGFR-L858R mean interaction score
Experimental: as §1, §2, §3

EGFR-L858R = molecular target: T2, EGFR-L858R (Homo sapiens, UniProt P00533, L858R); test: MaMTH EGFR-interactor screen, lentiviral preys against EGFR-L858R bait (interaction score); assay type: cell-based; settings: MaMTH interaction score of prey with EGFR-L858R bait
T2 construct: with the advantage of testing full-length integral membrane proteins; (GGGGS)2 linker-Cub (human ubiquitin aa 35-76)-GAL4(1-147)-mNFkB(364-550) (C); expressed in transfected cells
Experimental: as §1, §2, §3

Substance	EGFR-Wt mean (EGFR-Wt [1])	Wt/L858R (EGFR-Wt [2])	EGFR-L858R mean (EGFR-L858R)
ABL1	1.89	3.76	0.50
AKT1	4.12	1.32	3.11
APP	0.93	0.43	2.18
ARRB1	2.72	0.41	6.57
ASAP2	1.77	1.81	0.97
BLK	4.51	0.55	8.25
CD3E	1.39	1.83	0.76
CD33	0.37	0.30	1.24
DOK6	1.22	0.92	1.32
EZR	8.30	1.66	5.00
FASLG	0.85	0.74	1.15
FGR	2.62	0.52	4.99
FRK	2.84	0.53	5.36
GAB2	0.97	0.76	1.27
Gapdh	3.44	0.91	3.79
Grb2	–	0.28	–
HCK	3.94	1.00	3.96
HDAC6	24.86	1.67	14.90
HSP90AB1	27.58	1.86	14.81
HSPA1A	12.77	0.67	19.20
HSPA8	25.00	0.64	39.20
Hsp90aa1	74.20	0.76	97.06
IKBKG	8.28	1.26	6.55
ITGB2	2.62	3.16	0.83
ITSN2	2.09	3.50	0.60
MAP4K1	1.51	0.86	1.76
MAPK9	1.48	0.52	2.83
MUC1	1.09	0.26	4.18

Substance	EGFR-Wt mean (EGFR-Wt [1])	Wt/L858R (EGFR-Wt [2])	EGFR-L858R mean (EGFR-L858R)
NCK2	4.35	0.89	4.87
NR3C1	3.21	1.24	2.59
NTRK2	1.57	1.61	0.97
PIK3C2B	1.23	0.29	4.30
PIK3R2	1.17	0.36	3.25
PIK3R3	1.55	0.64	2.40
PIM1	1.91	1.27	1.51
PRKCA	11.13	1.45	7.70
PTPN1	44.56	0.80	55.90
PTPN6	1.51	1.05	1.43
RELA	1.27	1.08	1.18
Rgs4	0.58	0.41	1.39
S100A4	1.72	0.39	4.46
SFN	5.60	0.38	14.70
SH2B1	2.99	0.79	3.76
SOCS3	1.59	0.16	9.83
STAT2	0.84	0.28	3.03
STAT3	7.35	1.75	4.20
STUB1	10.28	1.46	7.04
TGFA	2.52	1.59	1.59
TLR2	0.58	0.34	1.69
TRAF2	7.28	2.10	3.47
YES1	1.91	1.55	1.23
YWHAB	7.39	0.71	10.44
YWHAG	1.32	0.93	1.42
YWHAQ	8.19	0.69	11.96
YWHAZ	7.58	0.54	13.94
